Drawing on patent US20230399608A1, “PROCESS FOR ESTABLISHING A HUMAN TESTICULAR TISSUE CULTURE SYSTEM” (PATERNA BIOSCIENCES INC., priority 2021, published 2023), this text covers Effective for 20 molecules.

The test system of this assay is testicular germ cell proliferation. Nature of the assay: Screen of SSC / differentiating spermatogonia receptor ligands in the iterative culture process. It is filed as cell-based, human. To be noted: ligand at the concentration listed in Table 5; effective to date at improving germ cell proliferation. An excerpt:
A process for identification and selection of receptor ligands capable of improving testicular germ cell proliferation was developed. The process uses expression data obtained by mining scRNA-seq data obtained from testicular tissue (FIG. 27). The process systematically prioritizes candidates for spermatogonia ligands through a series of bioinformatics analyses and filtering. The process comprises identifying and selecting potential ligands based on their receptor expression in State 1 SSCs (active stem cells) and State 2/3 differentiating spermatogonia (differentiated germ cells with strong proliferation ability), or any combination thereof.
More specifically, the approach was based on the single-cell RNA sequencing transcriptome profile of the adult human testis atlas (Guo, J., Grow, E. J., Mlcochova, H., Maher, G. J., Lindskog, C., Nie, X., Guo, Y., Takei, Y., Yun, J., Cai, L., et al. (2018). The adult human testis transcriptional cell atlas. Cell Research 28, 1141. 10.1038/s41422-018-0099-2; the disclosure of all of which is incorporated herein in its entirety), which provides a comprehensive characterization of cell types in the human adult testis. Pseudo-bulk RNA-seq analysis was used, which involves aggregating individual cells into groups to enhance the receptor gene expression signal on SSCs and differentiating spermatogonia. Each individual cell is assigned to its corresponding cell type cluster based and summing the expression values of all cells within each cluster to create pseudo-bulk samples.
The CellTalkDB database was used to identify receptors expressed in SSCs/differentiating spermatogonia. Specifically, the receptors whose expression in SSCs/differentiating spermatogonia ranks within the top 150 were selected, as expression levels below this point are generally low in these cell populations. […] This filtering step helps to focus on receptors that are more specific to the target cell populations. Using the CellTalkDB database, the corresponding ligands for the selected receptors were then identified. The ligand candidates were prioritized based on their expression levels in the testes, and their known functionality.
The identified ligands were then used in the iterative process of the instant disclosure for identifying culture conditions that support testicular germ cell proliferation in vitro to refine the culture conditions.

On to rh beta-NGF: ligand of KIDINS220, for which the Effective entry is listed as “Yes”.

As for rh CXCL12: chemokine; ligand of CXCR4, the Effective result is “No”.

For the molecule rh Secretin: ligand of VIPR2, the Effective entry is recorded as “No”.

FGF2: basic fibroblast growth factor: the Effective entry is reported as “Yes”.

Consider `C[C@]12CC[C@H]3[C@@H](CCC4=CC(=O)CC[C@@]43C)[C@@H]1CC[C@@H]2O` [Testosterone, reference compound], for which the Effective result is “Yes”.

“rh LIF: leukemia inhibitory factor; ligand of IL6ST/LIFR”: the Effective result was “Yes”.

B1: rh Midkine Protein: ligand of GPC2 (protein, UniProt P21741 21-143, looked up)
Midkine: VAKKKDKVKKGGPGSECAEWAWGPCTPSSKDCGVGFREGTCGAQTQRIRCRVPCNWKKEFGADCKYKFENWGACDGGTGTKVRQGTLKKARYNAQCQETIRVTKPCTPKTKAKAKAKKGKGKD
For the molecule B1, the Effective result is on record as “Yes”.

B2: WNT-3A: ligand of RYK/FZD3/FZD7/FZD1/LRP6 (protein, UniProt P56704 19-352, looked up)
Protein Wnt-3a: SYPIWWSLAVGPQYSSLGSQPILCASIPGLVPKQLRFCRNYVEIMPSVAEGIKIGIQECQHQFRGRRWNCTTVHDSLAIFGPVLDKATRESAFVHAIASAGVAFAVTRSCAEGTAAICGCSSRHQGSPGKGWKWGGCSEDIEFGGMVSREFADARENRPDARSAMNRHNNEAGRQAIASHMHLKCKCHGLSGSCEVKTCWWSQPDFRAIGDFLKDKYDSASEMVVEKHRESRGWVETLRPRYTYFKVPTERDLVYYEASPNFCEPNPETGSFGTRDRTCNVSSHGIDGCDLLCCGRGHNARAERRREKCRCVFHWCCYVSCQECTRVYDVHTCK
As for B2, the Effective result is reported as “Yes”.

B3: GDNF: recombinant human glial cell line-derived neurotrophic factor (protein, UniProt P39905 78-211, looked up)
Glial cell line-derived …: SPDKQMAVLPRRERNRQAAAANPENSRGKGRRGQRGKNRGCVLTAIHLNVTDLGLGYETKEELIFRYCSGSCDAAETTYDKILKNLSRNRRLVSDKVGQACCRPIAFDDDLSFLDDNLVYHILRKHSAKRCGCI
As for B3, the Effective result is given as “Yes”.

B4: DLK2: ligand of NOTCH1 (protein, UniProt Q6UY11 27-383, looked up)
Protein delta homolog 2: DDCSSHCDLAHGCCAPDGSCRCDPGWEGLHCERCVRMPGCQHGTCHQPWQCICHSGWAGKFCDKDEHICTTQSPCQNGGQCMYDGGGEYHCVCLPGFHGRDCERKAGPCEQAGSPCRNGGQCQDDQGFALNFTCRCLVGFVGARCEVNVDDCLMRPCANGATCLDGINRFSCLCPEGFAGRFCTINLDDCASRPCQRGARCRDRVHDFDCLCPSGYGGKTCELVLPVPDPPTTVDTPLGPTSAVVVPATGPAPHSAGAGLLRISVKEVVRRQEAGLGEPSLVALVVFGALTAALVLATVLLTLRAWRRGVCPPGPCCYPAPHYAPACQDQECQVSMLPAGLPLPRDLPPEPGKTTAL
With B4, the Effective result is on record as “No”.

B5: GDF9: ligand of ACVR2A/BMPR1B/BMPR1A/BMPR2/TGFBR1 (protein, UniProt O60383 320-454, looked up)
Growth/differentiation factor …: GQETVSSELKKPLGPASFNLSEYFRQFLLPQNECELHDFRLSFSQLKWDNWIVAPHRYNPRYCKGDCPRAVGHRYGSPVHTMVQNIIYEKLDSSVPRPSCVPAKYSPLSVLTIEPDGSIAYKEYEDMIATKCTCR
With B5, the Effective entry is reported as “No”.

B6: rh MIF: ligand of CXCR4/CD74 (protein, UniProt P14174 2-115, looked up)
Macrophage migration …: PMFIVNTNVPRASVPDGFLSELTQQLAQATGKPPQYIAVHVVPDQLMAFGGSSEPCALCSLHSIGKIGGAQNRSYSKLLCGLLAERLRISPDRVYINYYDMNAANVGWNNSTFA
As to B6, the Effective result is “Yes”.

B7: Artemin (ARTN): ligand of GFRA1/GFRA2/RET/GFRA3 (protein, UniProt Q5T4W7 108-220, looked up)
Artemin: AGGPGSRARAAGARGCRLRSQLVPVRALGLGHRSDELVRFRFCSGSCRRARSPHDLSLASLLGAGALRPPPGSRPVSQPCCRPTRYEAVSFMDVNSTWRTVDRLSATACGCLG
Turning to B7, the Effective result is listed as “No”.

B8: GDF6/BMP13: ligand of BMPR1B/BMPR1A/BMPR2 (protein, UniProt Q6KF10 336-455, looked up)
Growth/differentiation factor …: TAFASRHGKRHGKKSRLRCSKKPLHVNFKELGWDDWIIAPLEYEAYHCEGVCDFPLRSHLEPTNHAIIQTLMNSMDPGSTPPSCCVPTKLTPISILYIDAGNNVVYKQYEDMVVESCGCR
In the case of B8, the Effective result was “No”.

B9: GDF11/BMP11: ligand of BMPR1B/BMPR1A/BMPR2/ACVR2B/ACVR1B/ACVR2A (protein, UniProt O95390 299-407, looked up)
Growth/differentiation factor …: NLGLDCDEHSSESRCCRYPLTVDFEAFGWDWIIAPKRYKANYCSGQCEYMFMQKYPHTHLVQQANPRGSAGPCCTPTKMSPINMLYFNDKQQIIYGKIPGMVVDRCGCS
Regarding B9, the Effective result is on record as “No”.

B10: WNT-1: ligand of RYK/FZD3/FZD7/FZD1/ROR2/LRP6 (protein, UniProt P04628 28-370, looked up)
Proto-oncogene Wnt-1: ANSSGRWWGIVNVASSTNLLTDSKSLQLVLEPSLQLLSRKQRRLIRQNPGILHSVSGGLQSAVRECKWQFRNRRWNCPTAPGPHLFGKIVNRGCRETAFIFAITSAGVTHSVARSCSEGSIESCTCDYRRRGPGGPDWHWGGCSDNIDFGRLFGREFVDSGEKGRDLRFLMNLHNNEAGRTTVFSEMRQECKCHGMSGSCTVRTCWMRLPTLRAVGDVLRDRFDGASRVLYGNRGSNRASRAELLRLEPEDPAHKPPSPHDLVYFEKSPNFCTYSGRLGTAGTAGRACNSSSPALDGCELLCCGRGHRTRTQRVTERCNCTFHWCCHVSCRNCTHTRVLHECL
B10: the Effective entry is “No”.

B11: BMP8b: ligand of BMPR1B/BMPR1A/BMPR2 (protein, UniProt P34820 264-402, looked up)
Bone morphogenetic protein 8B: AVRPLRRRQPKKSNELPQANRLPGIFDDVHGSHGRQVCRRHELYVSFQDLGWLDWVIAPQGYSAYYCEGECSFPLDSCMNATNHAILQSLVHLMMPDAVPKACCAPTKLSATSVLYYDSSNNVILRKHRNMVVKACGCH
As for B11, the Effective entry was “No”.

B12: Neurturin (NRTN): ligand of GFRA1/GFRA2/RET/GFRA3 (protein, UniProt Q99748 96-197, looked up)
Neurturin: ARLGARPCGLRELEVRVSELGLGYASDETVLFRYCAGACEAAARVYDLGLRRLRQRRRLRRERVRAQPCCRPTAYEDEVSFLDAHSRYHTVHELSARECACV
As for B12, the Effective result is “Yes”.

B13: rh HB-EGF: ligand of CD9 (protein, UniProt Q99075 63-148, looked up)
Heparin-binding EGF-like …: DLQEADLDLLRVTLSSKPQALATPNKEEHGKRKKKGKGLGKKRDPCLRKYKDFCIHGECKYVKELRAPSCICHPGYHGERCHGLSL
Take B13: the Effective result is reported as “Yes”.

B14: CNTN2: ligand of CNTNAP2 (protein, UniProt Q02246 31-1012, looked up)
Contactin-2: SQTTFGPVFEDQPLSVLFPEESTEEQVLLACRARASPPATYRWKMNGTEMKLEPGSRHQLVGGNLVIMNPTKAQDAGVYQCLASNPVGTVVSREAILRFGFLQEFSKEERDPVKAHEGWGVMLPCNPPAHYPGLSYRWLLNEFPNFIPTDGRHFVSQTTGNLYIARTNASDLGNYSCLATSHMDFSTKSVFSKFAQLNLAAEDTRLFAPSIKARFPAETYALVGQQVTLECFAFGNPVPRIKWRKVDGSLSPQWTTAEPTLQIPSVSFEDEGTYECEAENSKGRDTVQGRIIVQAQPEWLKVISDTEADIGSNLRWGCAAAGKPRPTVRWLRNGEPLASQNRVEVLAGDLRFSKLSLEDSGMYQCVAENKHGTIYASAELAVQALAPDFRLNPVRRLIPAARGGEILIPCQPRAAPKAVVLWSKGTEILVNSSRVTVTPDGTLIIRNISRSDEGKYTCFAENFMGKANSTGILSVRDATKITLAPSSADINLGDNLTLQCHASHDPTMDLTFTWTLDDFPIDFDKPGGHYRRTNVKETIGDLTILNAQLRHGGKYTCMAQTVVDSASKEATVLVRGPPGPPGGVVVRDIGDTTIQLSWSRGFDNHSPIAKYTLQARTPPAGKWKQVRTNPANIEGNAETAQVLGLTPWMDYEFRVIASNILGTGEPSGPSSKIRTREAAPSVAPSGLSGGGGAPGELIVNWTPMSREYQNGDGFGYLLSFRRQGSTHWQTARVPGADAQYFVYSNESVRPYTPFEVKIRSYNRRGDGPESLTALVYSAEEEPRVAPTKVWAKGVSSSEMNVTWEPVQQDMNGILLGYEIRYWKAGDKEAAADRVRTAGLDTSARVSGLHPNTKYHVTVRAYNRAGTGPASPSANATTMKPPPRRPPGNISWTFSSSSLSIKWDPVVPFRNESAVTGYKMLYQNDLHLTPTLHLTGKNWIEIPVPEDIGHALVQIRTTGPGGDGIPAEVHIVRNGGTSMMVEN
In the case of B14, the Effective result is recorded as “No”.
